In this assay the target is 46w60 nucleosome (recombinant human histone octamer on Widom 601 DNA with 46-bp and 60-bp flanks), … (human, UniProt P0C0S8 1-130; P62807 1-126; P68431 1-136; P62805 1-103). Description: MST.

B1: CHD4(1–1230) (domain or fragment)
chain: MASGLGSPSPCSAGSEEEDMDALLNNSLPPPHPENEEDPEEDLSETETPKLKKKKKPKKPRDPKIPKSKRQKKERMLLCRQLGDSSGEGPEFVEEEEEVALRSDSEGSDYTPGKKKKKKLGPKKEKKSKSKRKEEEEEEDDDDDSKEPKSSAQLLEDWGMEDIDHVFSEEDYRTLTNYKAFSQFVRPLIAAKNPKIAVSKMMMVLGAKWREFSTNNPFKGSSGASVAAAAAAAVAVVESMVTATEVAPPPPPVEVPIRKAKTKEGKGPNARRKPKGSPRVPDAKKPKPKKVAPLKIKLGGFGSKRKRSSSEDDDLDVESDFDDASINSYSVSDGSTSRSSRSRKKLRTTKKKKKGEEEVTAVDGYETDHQDYCEVCQQGGEIILCDTCPRAYHMVCLDPDMEKAPEGKWSCPHCEKEGIQWEAKEDNSEGEEILEEVGGDLEEEDDHHMEFCRVCKDGGELLCCDTCPSSYHIHCLNPPLPEIPNGEWLCPRCTCPALKGKVQKILIWKWGQPPSPTPVPRPPDADPNTPSPKPLEGRPERQFFVKWQGMSYWHCSWVSELQLELHCQVMFRNYQRKNDMDEPPSGDFGGDEEKSRKRKNKDPKFAEMEERFYRYGIKPEWMMIHRILNHSVDKKGHVHYLIKWRDLPYDQASWESEDVEIQDYDLFKQSYWNHRELMRGEEGRPGKKLKKVKLRKLERPPETPTVDPTVKYERQPEYLDATGGTLHPYQMEGLNWLRFSWAQGTDTILADEMGLGKTVQTAVFLYSLYKEGHSKGPFLVSAPLSTIINWEREFEMWAPDMYVVTYVGDKDSRAIIRENEFSFEDNAIRGGKKASRMKKEASVKFHVLLTSYELITIDMAILGSIDWACLIVDEAHRLKNNQSKFFRVLNGYSLQHKLLLTGTPLQNNLEELFHLLNFLTPERFHNLEGFLEEFADIAKEDQIKKLHDMLGPHMLRRLKADVFKNMPSKTELIVRVELSPMQKKYYKYILTRNFEALNARGGGNQVSLLNVVMDLKKCCNHPYLFPVAAMEAPKMPNGMYDGSALIRASGKLLLLQKMLKNLKEGGHRVLIFSQMTKMLDLLEDFLEHEGYKYERIDGGITGNMRQEAIDRFNAPGAQQFCFLLSTRAGGLGINLATADTVIIYDSDWNPHNDIQAFSRAHRIGQNKKVMIYRFVTRASVEERITQVAKKKMMLTHLVVRPGLGSKTGSMSKQELDDILKFGTEELFKDE
As for B1, the Kd (usually the concentration at which binding is half-saturated) worked out at 250 nM.

B2: CHD4(1–1540) (domain or fragment)
chain: MASGLGSPSPCSAGSEEEDMDALLNNSLPPPHPENEEDPEEDLSETETPKLKKKKKPKKPRDPKIPKSKRQKKERMLLCRQLGDSSGEGPEFVEEEEEVALRSDSEGSDYTPGKKKKKKLGPKKEKKSKSKRKEEEEEEDDDDDSKEPKSSAQLLEDWGMEDIDHVFSEEDYRTLTNYKAFSQFVRPLIAAKNPKIAVSKMMMVLGAKWREFSTNNPFKGSSGASVAAAAAAAVAVVESMVTATEVAPPPPPVEVPIRKAKTKEGKGPNARRKPKGSPRVPDAKKPKPKKVAPLKIKLGGFGSKRKRSSSEDDDLDVESDFDDASINSYSVSDGSTSRSSRSRKKLRTTKKKKKGEEEVTAVDGYETDHQDYCEVCQQGGEIILCDTCPRAYHMVCLDPDMEKAPEGKWSCPHCEKEGIQWEAKEDNSEGEEILEEVGGDLEEEDDHHMEFCRVCKDGGELLCCDTCPSSYHIHCLNPPLPEIPNGEWLCPRCTCPALKGKVQKILIWKWGQPPSPTPVPRPPDADPNTPSPKPLEGRPERQFFVKWQGMSYWHCSWVSELQLELHCQVMFRNYQRKNDMDEPPSGDFGGDEEKSRKRKNKDPKFAEMEERFYRYGIKPEWMMIHRILNHSVDKKGHVHYLIKWRDLPYDQASWESEDVEIQDYDLFKQSYWNHRELMRGEEGRPGKKLKKVKLRKLERPPETPTVDPTVKYERQPEYLDATGGTLHPYQMEGLNWLRFSWAQGTDTILADEMGLGKTVQTAVFLYSLYKEGHSKGPFLVSAPLSTIINWEREFEMWAPDMYVVTYVGDKDSRAIIRENEFSFEDNAIRGGKKASRMKKEASVKFHVLLTSYELITIDMAILGSIDWACLIVDEAHRLKNNQSKFFRVLNGYSLQHKLLLTGTPLQNNLEELFHLLNFLTPERFHNLEGFLEEFADIAKEDQIKKLHDMLGPHMLRRLKADVFKNMPSKTELIVRVELSPMQKKYYKYILTRNFEALNARGGGNQVSLLNVVMDLKKCCNHPYLFPVAAMEAPKMPNGMYDGSALIRASGKLLLLQKMLKNLKEGGHRVLIFSQMTKMLDLLEDFLEHEGYKYERIDGGITGNMRQEAIDRFNAPGAQQFCFLLSTRAGGLGINLATADTVIIYDSDWNPHNDIQAFSRAHRIGQNKKVMIYRFVTRASVEERITQVAKKKMMLTHLVVRPGLGSKTGSMSKQELDDILKFGTEELFKDEATDGGGDNKEGEDSSVIHYDDKAIERLLDRNQDETEDTELQGMNEYLSSFKVAQYVVREEEMGEEEEVEREIIKQEESVDPDYWEKLLRHHYEQQQEDLARNLGKGKRIRKQVNYNDGSQEDRDWQDDQSDNQSDYSVASEEGDEDFDERSEAPRRPSRKGLRNDKDKPLPPLLARVGGNIEVLGFNARQRKAFLNAIMRYGMPPQDAFTTQWLVRDLRGKSEKEFKAYVSLFMRHLCEPGADGAETFADGVPREGLSRQHVLTRIGVMSLIRKKVQEFEHVNGRWSMPELAEVEENKKMSQPGSPSPKT
Regarding B2, the Kd is 210 nM.

B3: CHD4(1–1380) (domain or fragment)
chain: MASGLGSPSPCSAGSEEEDMDALLNNSLPPPHPENEEDPEEDLSETETPKLKKKKKPKKPRDPKIPKSKRQKKERMLLCRQLGDSSGEGPEFVEEEEEVALRSDSEGSDYTPGKKKKKKLGPKKEKKSKSKRKEEEEEEDDDDDSKEPKSSAQLLEDWGMEDIDHVFSEEDYRTLTNYKAFSQFVRPLIAAKNPKIAVSKMMMVLGAKWREFSTNNPFKGSSGASVAAAAAAAVAVVESMVTATEVAPPPPPVEVPIRKAKTKEGKGPNARRKPKGSPRVPDAKKPKPKKVAPLKIKLGGFGSKRKRSSSEDDDLDVESDFDDASINSYSVSDGSTSRSSRSRKKLRTTKKKKKGEEEVTAVDGYETDHQDYCEVCQQGGEIILCDTCPRAYHMVCLDPDMEKAPEGKWSCPHCEKEGIQWEAKEDNSEGEEILEEVGGDLEEEDDHHMEFCRVCKDGGELLCCDTCPSSYHIHCLNPPLPEIPNGEWLCPRCTCPALKGKVQKILIWKWGQPPSPTPVPRPPDADPNTPSPKPLEGRPERQFFVKWQGMSYWHCSWVSELQLELHCQVMFRNYQRKNDMDEPPSGDFGGDEEKSRKRKNKDPKFAEMEERFYRYGIKPEWMMIHRILNHSVDKKGHVHYLIKWRDLPYDQASWESEDVEIQDYDLFKQSYWNHRELMRGEEGRPGKKLKKVKLRKLERPPETPTVDPTVKYERQPEYLDATGGTLHPYQMEGLNWLRFSWAQGTDTILADEMGLGKTVQTAVFLYSLYKEGHSKGPFLVSAPLSTIINWEREFEMWAPDMYVVTYVGDKDSRAIIRENEFSFEDNAIRGGKKASRMKKEASVKFHVLLTSYELITIDMAILGSIDWACLIVDEAHRLKNNQSKFFRVLNGYSLQHKLLLTGTPLQNNLEELFHLLNFLTPERFHNLEGFLEEFADIAKEDQIKKLHDMLGPHMLRRLKADVFKNMPSKTELIVRVELSPMQKKYYKYILTRNFEALNARGGGNQVSLLNVVMDLKKCCNHPYLFPVAAMEAPKMPNGMYDGSALIRASGKLLLLQKMLKNLKEGGHRVLIFSQMTKMLDLLEDFLEHEGYKYERIDGGITGNMRQEAIDRFNAPGAQQFCFLLSTRAGGLGINLATADTVIIYDSDWNPHNDIQAFSRAHRIGQNKKVMIYRFVTRASVEERITQVAKKKMMLTHLVVRPGLGSKTGSMSKQELDDILKFGTEELFKDEATDGGGDNKEGEDSSVIHYDDKAIERLLDRNQDETEDTELQGMNEYLSSFKVAQYVVREEEMGEEEEVEREIIKQEESVDPDYWEKLLRHHYEQQQEDLARNLGKGKRIRKQVNYNDGSQEDRDWQDDQSDNQSDYSVASEEGDEDFDER
In the case of B3, the Kd came to 430 nM.

B4: CHD4(1–1810) (domain or fragment)
chain: MASGLGSPSPCSAGSEEEDMDALLNNSLPPPHPENEEDPEEDLSETETPKLKKKKKPKKPRDPKIPKSKRQKKERMLLCRQLGDSSGEGPEFVEEEEEVALRSDSEGSDYTPGKKKKKKLGPKKEKKSKSKRKEEEEEEDDDDDSKEPKSSAQLLEDWGMEDIDHVFSEEDYRTLTNYKAFSQFVRPLIAAKNPKIAVSKMMMVLGAKWREFSTNNPFKGSSGASVAAAAAAAVAVVESMVTATEVAPPPPPVEVPIRKAKTKEGKGPNARRKPKGSPRVPDAKKPKPKKVAPLKIKLGGFGSKRKRSSSEDDDLDVESDFDDASINSYSVSDGSTSRSSRSRKKLRTTKKKKKGEEEVTAVDGYETDHQDYCEVCQQGGEIILCDTCPRAYHMVCLDPDMEKAPEGKWSCPHCEKEGIQWEAKEDNSEGEEILEEVGGDLEEEDDHHMEFCRVCKDGGELLCCDTCPSSYHIHCLNPPLPEIPNGEWLCPRCTCPALKGKVQKILIWKWGQPPSPTPVPRPPDADPNTPSPKPLEGRPERQFFVKWQGMSYWHCSWVSELQLELHCQVMFRNYQRKNDMDEPPSGDFGGDEEKSRKRKNKDPKFAEMEERFYRYGIKPEWMMIHRILNHSVDKKGHVHYLIKWRDLPYDQASWESEDVEIQDYDLFKQSYWNHRELMRGEEGRPGKKLKKVKLRKLERPPETPTVDPTVKYERQPEYLDATGGTLHPYQMEGLNWLRFSWAQGTDTILADEMGLGKTVQTAVFLYSLYKEGHSKGPFLVSAPLSTIINWEREFEMWAPDMYVVTYVGDKDSRAIIRENEFSFEDNAIRGGKKASRMKKEASVKFHVLLTSYELITIDMAILGSIDWACLIVDEAHRLKNNQSKFFRVLNGYSLQHKLLLTGTPLQNNLEELFHLLNFLTPERFHNLEGFLEEFADIAKEDQIKKLHDMLGPHMLRRLKADVFKNMPSKTELIVRVELSPMQKKYYKYILTRNFEALNARGGGNQVSLLNVVMDLKKCCNHPYLFPVAAMEAPKMPNGMYDGSALIRASGKLLLLQKMLKNLKEGGHRVLIFSQMTKMLDLLEDFLEHEGYKYERIDGGITGNMRQEAIDRFNAPGAQQFCFLLSTRAGGLGINLATADTVIIYDSDWNPHNDIQAFSRAHRIGQNKKVMIYRFVTRASVEERITQVAKKKMMLTHLVVRPGLGSKTGSMSKQELDDILKFGTEELFKDEATDGGGDNKEGEDSSVIHYDDKAIERLLDRNQDETEDTELQGMNEYLSSFKVAQYVVREEEMGEEEEVEREIIKQEESVDPDYWEKLLRHHYEQQQEDLARNLGKGKRIRKQVNYNDGSQEDRDWQDDQSDNQSDYSVASEEGDEDFDERSEAPRRPSRKGLRNDKDKPLPPLLARVGGNIEVLGFNARQRKAFLNAIMRYGMPPQDAFTTQWLVRDLRGKSEKEFKAYVSLFMRHLCEPGADGAETFADGVPREGLSRQHVLTRIGVMSLIRKKVQEFEHVNGRWSMPELAEVEENKKMSQPGSPSPKTPTPSTPGDTQPNTPAPVPPAEDGIKIEENSLKEEESIEGEKEVKSTAPETAIECTQAPAPASEDEKVVVEPPEGEEKVEKAEVKERTEEPMETEPKGAADVEKVEEKSAIDLTPIVVEDKEEKKEEEEKKEVMLQNGETPKDLNDEKQKKNIKQRFMFNIADGGFTELHSLWQNEERAATVTKKTYEIWHRRHDYWLLAGIINHGYARWQDIQNDPRYAILNEPFKGEMNRGNFLEIKNKFLARRFKLLEQALVIEEQLRRAAYLNMSED
B4: the Kd was 150 nM.

Values taken from paper PMC9726900 (2022).
